Results on 1 molecule are retold here after paper PMC13588620 (eLife, 2026).

This assay addresses T1, recombinant SARS-CoV-2 nucleocapsid protein (Severe acute respiratory syndrome …, UniProt P0DTC9).
T1 construct: SARS-CoV-2 nucleocapsid protein; also called NP; N-protein
Put plainly: ELISA; peptide competition ELISA: plate coated with 0.1 ug/ml recombinant SARS-CoV-2 NP overnight at 4°C; 40 μl mBG17 pre-incubated 1 h at room temperature with 40 μg (approximately 30 nMol) of a single peptide fragment, then applied to the plate in triplicate; HRP goat anti-mouse detection; percent of no-peptide control. Conditions: both partners purified. Background: An ELISA detects its analyte on a solid surface through an enzyme-linked reagent.

B1: mBG17 anti-SARS-CoV-2 nucleocapsid protein mouse monoclonal antibody (recombinant) (antibody, V domains shown)
VH: EVKLEESGGGLVQPGGSMKFSCVASGFTFSDYWMNWVRQSPDKGLEWVAEIRLKSNNYATHYAASVKGRFTISRDDSKSSVYLQMNNLRAEDSGIYYCTRSAMDYWGQGTSVTVSS
VL: DIVMSQSPSSLAVSVGEKITMSCKSSQSLLYTSDQKNYLAWFQQKPGQSPKLLIFWASTRDSGVPDRFTGSGSGTDFTLTISSVKAEDLAVYYCQQFYNYPRTFGGGTKLEI
notes: VH of mBG17; VL of mBG17; also called recombinant mBG17 antibody; source: recombinant antibody produced in 293F cells (as described in Terry et al., 2021)
Turning to B1, the binding result is reported as “binds”.
